From patent publication US8178324B2, “Deracemisation of amines” (Ingenza Limited, priority 2002, dated 2012)
Where a chain is given by its changes, count along the chain named.

Assays:
Type in all cases: biochemical
[1] = Specific activity of the purified MAO mutant active fraction against amylamine; details: active fraction after QSepharose, protein 1 mg·ml^−1
Experimental: LB medium (6×300 ml) containing ampicillin (100 μg·ml^−1) in 1 L baffled flasks was inoculated with a single colony of monoamine oxidase mutant from an LB agar plate. Cultures were incubated at 30° C. for 22 hours (OD600˜3.6) then harvested and washed with phosphate buffer (50 mM, pH 8) to yield a yellow-brown pellet (11.2 g).
The pellet was resuspended in Tris/HCl buffer (25 mM, pH 7.8, 30 ml) and sonicated on ice (30 s on, 30 s off for 10 minutes). The suspension was then centrifuged (20,000 rpm, 4° C.) until clear supernatant was obtained and the supernatant dialysed against Tris/HCl buffer (25 mM, pH 7.8). The cell free extract was filtered through 0.45 μm sterile membrane and chromatographed on a QSepharose anion exchange column. Fractions were assayed using colorimetric hydrogen peroxide based assay and active fractions were stored at −80° C. The active fraction has a protein content of 1 mg·ml^−1, and a specific activity of 0.193 U·mg^−1 against amylamine. […]
The spectrophotometer was blanked against assay mixture and HRP. Enzyme was added and the absorbance at 500 nm measured at 3 s intervals for a 10 minute period.

[2] = Specific activities of partially purified MAO WT and MAOArg259/260 towards amylamine
Experimental: MAO WT and MAOArg259/260 were partially purified from recombinant E. coli BL21(DE3) harbouring a pET16b carrying the corresponding mao-n gene. Cell free extracts were prepared by sonication and the specific activities of MAO WT and MAOArg259/260 towards AA were measured for both the soluble and insoluble fractions. (Table 3)

[3] = Cell free extracts assayed towards L-AMBA; details: 240 minutes
Experimental: To 895 ul Assay Mixture was Added: • 5 μl HRP (Sigma, P6782) (1 mg/ml)
Sample (100 μl) was added and absorbance at 510 nm measured after 24 hours against a control without sample.
This was achieved by incubating 50 μl of each sample for 240 minutes and specific activities were determined. (Table 4)

B1: MAO mutant: A. niger monoamine oxidase variant with serine replacing asparagine at position 336 (SEQ ID NO: 2) (protein)
chain: MTSRDGYQWTPETGLTQGVPSLGVISPPTNIEDTDKDGPWDVIVIGGGYCGLTATRDLTVAGFKTLLLEARDRIGGRSWSSNIDGYPYEMGGTWVHWHQSHVWREITRYKMHNALSPSFNFSRGVNHFQLRTNPTTSTYMTHEAEDELLRSALHKFTNVDGTNGRTVLPFPHDMFYVPEFRKYDEMSYSERIDQIRDELSLNERSSLEAFILLCSGGTLENSSFGEFLHWWAMSGYTYQGCMDCLISYKFKDGQSAFARRFWEEAAGTGRLGYVFGCPVRSVVNERDAARVTARDGREFVAKRVVCTIPLNVLSTIQFSPALSTERISAMQAGHVSMCTKVHAEVDNMDMRSWTGIAYPFNKLCYAIGDGTTPAGNTHLVCFGTDANHIQPDEDVRETLKAVGQLAPGTFGVKRLVFHNWVKDEFAKGAWFFSRPGMVSECLQGLREKHGGVVFANSDWALGWRSFIDGAIEEGTRAARVVLEELGTKREVKARL
modifications: Variant monoamine oxidase enzyme generated by direct evolution
- specific activity against amylamine [1]: 0.193 U·mg^−1

B2: MAO WT: wild-type Aspergillus niger monoamine oxidase (SEQ ID NO:1) expressed in E. coli BL21(DE3) (protein)
chain: B1 chain with S336N
modifications: Aspergillus niger
- Total activity [2]: 0.57 U
- Insoluble fraction specific activity ([2]; insoluble fraction): 0.33 U · mg^−1
- Soluble fraction specific activity ([2]; soluble fraction): 0.23 U · mg^−1
- ΔAbs 510 nm ([3]; 50 μl sample): 0.06
- Soluble fraction specific activity [3]: 3.6 × 10^−5 U · mg^−1
